Results: the Immune Epitope Database (IEDB)
Each block holds one sequence with its values, some of them ahead of it.

Tests used:
[1] = molecular target: HLA-B*53:01; experiment: IEDB peptide-MHC binding, purified MHC/competitive/radioactivity; filed as Kd, often an IC50 or EC50 that approximates it; ≥ and ≤ were set here for values at or beyond the usual limits of such assays
[2] = molecular target: HLA-A*02:06; experiment: as above
[3] = molecular target: HLA-A*68:02; experiment: as above
[4] = molecular target: HLA-A*02:01; experiment: as above
[5] = molecular target: HLA-A*02:17; experiment: as above
[6] = molecular target: HLA-B*51:01; experiment: as above; conditions: source organism: Dengue virus 1 Brazil/97-11/1997
[7] = molecular target: HLA-B*18:01; experiment: IEDB peptide-MHC binding, purified MHC/direct/fluorescence; filed as Kd, often an IC50 or EC50 that approximates it; ≥ and ≤ were set here for values at or beyond the usual limits of such assays
[8] = molecular target: HLA-B*44:02; experiment: as above; conditions: source organism: dengue virus type 1
[9] = molecular target: HLA-A*30:01; experiment: IEDB peptide-MHC binding, purified MHC/competitive/radioactivity; filed as Kd, often an IC50 or EC50 that approximates it; ≥ and ≤ were set here for values at or beyond the usual limits of such assays; conditions: source organism: Vaccinia virus WR
[10] = molecular target: HLA-A*32:01; experiment: as above
[11] = molecular target: HLA-B*08:01; experiment: as above
[12] = molecular target: HLA-B*15:01; experiment: as above; conditions: source organism: Vaccinia virus WR
[13] = molecular target: HLA-B*15:03; experiment: as above; conditions: source organism: Vaccinia virus WR
[14] = molecular target: HLA-B*07:02; experiment: as above
[15] = molecular target: HLA-A*02:01; experiment: IEDB peptide-MHC binding, purified MHC/direct/fluorescence; filed as Kd, often an IC50 or EC50 that approximates it; ≥ and ≤ were set here for values at or beyond the usual limits of such assays; conditions: source organism: Orthohantavirus andesense
[16] = molecular target: HLA-A*03:01; experiment: as above; conditions: source organism: Lechiguanas virus
[17] = molecular target: HLA-A*26:01; experiment: IEDB peptide-MHC binding, purified MHC/competitive/fluorescence; filed as Kd, often an IC50 or EC50 that approximates it; ≥ and ≤ were set here for values at or beyond the usual limits of such assays; conditions: source organism: Lechiguanas virus
[18] = molecular target: HLA-B*18:01; experiment: as above; conditions: source organism: Lechiguanas virus
[19] = molecular target: HLA-B*27:03; experiment: as above; conditions: source organism: Lechiguanas virus
[20] = molecular target: HLA-B*39:01; experiment: as above; conditions: source organism: Lechiguanas virus
[21] = molecular target: HLA-B*46:01; experiment: as above; conditions: source organism: Lechiguanas virus
[22] = molecular target: HLA-B*51:01; experiment: as above; conditions: source organism: Lechiguanas virus
[23] = molecular target: HLA-B*57:01; experiment: as above; conditions: source organism: Lechiguanas virus
[24] = molecular target: HLA-B*44:03; experiment: IEDB peptide-MHC binding, purified MHC/competitive/radioactivity; filed as Kd, often an IC50 or EC50 that approximates it; ≥ and ≤ were set here for values at or beyond the usual limits of such assays; conditions: source organism: Murray valley encephalitis virus (strain MVE-1-51)
[25] = molecular target: HLA-A*02:03; experiment: as above
[26] = molecular target: HLA-B*35:01; experiment: as above; conditions: source organism: Dengue virus 3 Singapore/8120/1995
[27] = source organism: Dengue virus 4 Philippines/H241/1956
[28] = source organism: Dengue virus 1 Brazil/97-11/1997
[29] = source organism: Vaccinia virus WR
[30] = source organism: Dengue virus 3 China/80-2/1980
[31] = source organism: Dengue virus 2 Jamaica/1409/1983
[32] = source organism: Dengue virus 3 Martinique/1243/1999
[33] = source organism: Dengue virus 4 Dominica/814669/1981
[34] = source organism: Dengue virus 1 Nauru/West Pac/1974
[35] = source organism: Dengue virus 1 Singapore/S275/1990

Sequence: HMEGVFHTMW
Kd [1, 27]: 34.6 nM

Sequence: WTLYAVATTV
Kd [2, 28]: 90.1 nM
Kd [3, 28]: 1.57 nM

Sequence: WLVHKQWFL
Kd [4, 27]: 3.99 nM
Kd [2, 28]: 93.4 nM
Kd [5, 27]: 15 nM

Sequence: MATYGWNLV
Kd [3, 28]: 20.1 nM
Kd [6]: 1250 nM

Sequence: REDQWCGSL
Kd ([7]; source organism: dengue virus type 1): 11600 nM
Kd [8]: ≥ 20000 nM

Sequence: IASTLIVTI
Kd [9]: 10.1 nM
Kd [10, 29]: 73.5 nM
Kd [11, 29]: 8400 nM
Kd [12]: 156 nM
Kd [13]: 110 nM

Sequence: ALLELFNAF
Kd [9]: 357 nM
Kd [10, 29]: 166 nM
Kd [11, 29]: 2690 nM
Kd [12]: 2.48 nM
Kd [13]: 0.241 nM

Sequence: KMDLGVPLL
Kd [4, 30]: 5.29 nM
Kd [5, 30]: 698 nM

Sequence: CTILAAVSV
Kd [3, 31]: 1.52 nM

Sequence: IPYLGKREDL
Kd [14, 27]: 50.3 nM
Kd [11, 27]: 785 nM

Sequence: AMPKTIYEL
Kd [15]: 37.3 nM
Kd [16]: ≥ 20000 nM
Kd [17]: ≥ 20000 nM
Kd [18]: ≥ 20000 nM
Kd [19]: ≥ 20000 nM
Kd [20]: ≥ 20000 nM
Kd [21]: ≥ 20000 nM
Kd [22]: ≥ 20000 nM
Kd [23]: ≥ 20000 nM

Sequence: QLWTALVSL
Kd [4, 30]: 1.61 nM
Kd [5, 30]: 79.7 nM

Sequence: ALLAGFMAYM
Kd [4, 27]: 5.69 nM
Kd [5, 27]: 34 nM

Sequence: TTSGTYVSA
Kd [3, 28]: 24 nM

Sequence: MSFRDLGRV
Kd [3, 31]: 19.6 nM

Sequence: AINNRICVM
Kd [9]: 135 nM
Kd [10, 29]: 1240 nM
Kd [11, 29]: 423 nM
Kd [12]: 50.6 nM
Kd [13]: 65.1 nM

Sequence: LEFEALGFL
Kd ([7]; source organism: Alkhumra hemorrhagic fever virus): 2.8 nM
Kd [24]: 4970 nM

Sequence: AEREPFQYF
Kd ([7]; source organism: Mycobacterium ulcerans): 208 nM

Sequence: ILLVAVSFV
Kd [4, 31]: 12.1 nM
Kd [25, 31]: 1.11 nM
Kd [2, 31]: 13.9 nM
Kd [5, 31]: 1180 nM

Sequence: SPGTSGSPIV
Kd [14, 31]: 88.1 nM

Sequence: IPQWQPSKGW
Kd [1, 32]: 73.1 nM

Sequence: KLSMGLITI
Kd [4, 33]: 20.5 nM
Kd [25, 33]: 23.9 nM
Kd [5, 33]: 1810 nM
Kd [10, 33]: 19.8 nM

Sequence: RQFYNANVL
Kd [10, 29]: 37.2 nM
Kd [13]: 0.236 nM

Sequence: SKVFFGPIY
Kd [13]: 1.02 nM

Kd ([3]; source organism: Homo sapiens): 784 nM
Sequence: AMITDLEERL

Sequence: KQPEGVILF
Kd [13]: 3.65 nM

Sequence: YAMCLNTFVL
Kd [4, 30]: 11.4 nM
Kd [5, 30]: 110 nM
Kd [26]: 43.4 nM

Sequence: QIFGTAYGV
Kd [2, 34]: 3.61 nM
Kd [3, 34]: 2.31 nM

Sequence: LAHYIGTSL
Kd [14, 32]: 20 nM

Sequence: YGVLFSGVSW
Kd [1, 28]: 261 nM

Sequence: FLAIPPTAGI
Kd [4, 35]: 11.6 nM
Kd [25, 28]: 12.8 nM
Kd [5, 35]: 4.2 nM

Sequence: FLVDGLSSI
Kd [13]: 3160 nM

Sequence: LALKEFKEF
Kd [1, 31]: 1840 nM

Sequence: VEGLGLQKL
Kd ([7]; source organism: West Nile virus): 1280 nM

Kd ([2]; source organism: Homo sapiens): ≥ 61100 nM
Kd ([3]; source organism: Homo sapiens): 12300 nM
Sequence: EMETLQSQL
